Assay results taken from US20260103513A1.

Columns and labels:
[1] = target: TIGIT protein overexpressed on cells (Homo sapiens (Human)) (UniProt Q495A1); test: flow cytometry on 293T-TIGIT cells, Alexa-647 anti-human Fc, MFI
[2] = target: Cynomolgus monkey TIGIT-His tag fusion protein (cynomolgus monkey); test: ELISA, cynomolgus TIGIT-His coated, HRP anti-human IgG, OD450
Cynomolgus monkey TIGIT-His tag fusion protein (cynomolgus monkey), sequence (chain, as listed by the source): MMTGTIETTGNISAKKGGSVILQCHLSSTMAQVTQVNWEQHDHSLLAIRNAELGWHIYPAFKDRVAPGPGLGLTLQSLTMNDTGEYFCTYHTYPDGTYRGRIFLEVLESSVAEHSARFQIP

TIGIT protein overexpressed on cells (Homo sapiens (Human)), sequence (Q495A1 22-244): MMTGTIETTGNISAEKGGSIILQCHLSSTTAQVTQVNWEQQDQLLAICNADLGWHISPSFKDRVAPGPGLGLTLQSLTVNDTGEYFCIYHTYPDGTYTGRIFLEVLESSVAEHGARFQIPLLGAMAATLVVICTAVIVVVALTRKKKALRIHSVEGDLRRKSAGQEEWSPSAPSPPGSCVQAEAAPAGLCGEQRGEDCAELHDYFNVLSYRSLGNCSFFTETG

Substance: Tiragolumab analog (antibody)
- EC50 (read off the curve) [1]: 0.4 µg/mL
- EC50 (read off the curve) [2]: 0.08 µg/mL
